Results from patent US20150353638A1 (INSTITUTE OF BASIC MEDICAL SCIENCES CHINESE ACADEMY OF …, published 2015).

B1: humanized anti-human DR5 monoclonal antibody AD15 (antibody, human IgG1, kappa)
heavy: not shown
light: DVVMTQSPLSLPVTPGEPASISCRSSQSLVHSNGNTYLHWYLQKPGQSPQLLIYKVSNRFSGVPDRFSGSGSGTDFTLKISRVEAEDVGVYFCFQSTHVPHTFGQGTKLEIKRTVAAPSVFIFPPSDEQLKSGTASVVCLLNNFYPREAKVQWKVDNALQSGNSQESVTEQDSKDSTYSLSSTLTLSKADYEKHKVYACEVTHQGLSSPVTKSFNRGEC
notes: Humanized from murine AD5-10 by CDR grafting; human IgG1 heavy chain constant region and kappa light chain
B2: humanized anti-human DR5 monoclonal antibody AD14 (antibody, human IgG1, kappa)
heavy: not shown
light: B1 light
notes: as for B1
B3: humanized anti-human DR5 monoclonal antibody AD10 (antibody, human IgG1, kappa, V domains shown)
VH: EIQLVQSGPELKKPGASVKVSCKASGYTFTDFSMNWVRQAPGQGLKWMGWINTETGEPTYADDFKGRFALSMDTSVSTAYLQISSLKAEDTAVYFCVRIDYWGQGTTVTVSS
VL: DIVMTQSPLSLPVTPGEPASISCRSSQSLVHSNGNTYLHWYLQKPGQSPQLLIYKVSNRFSGVPDRFSGSGSGTDFTLKISRVEAEDVGVYYCFQSTHVPHTFGQGTKLEIKR
notes: as for B1

What follows are binders tested against T1, antigen DR5 (human death receptor 5), immobilised on the CM5 chip (human, UniProt O14763 56-182, limits assumed) (assay: SPR (Biacore X100), DR5 immobilised on CM5 chip, antibody injected as analyte).
T1 construct: The title says the antibodies are against the extracellular domain, but the construct used is not described; also called TRAIL receptor 2; TRAIL-R2
In the case of B1, the Kd is reported as 2.95 nM, the koff is reported as 0.0097 s⁻¹ and the kon is reported as 3.28e+06 M⁻¹ s⁻¹. B2 gave a Kd of 1.65 nM, a koff of 0.014 s⁻¹ and a kon of 8.44e+06 M⁻¹ s⁻¹. B3 was tested, and the Kd was 3.51 nM, the koff was 0.0198 s⁻¹ and the kon was 5.64e+06 M⁻¹ s⁻¹.
